Numbering of substitutions follows the chain as printed. In names and notes the source's numbering stands.

The text below walks through data of patent US11739318B1, “Modified biosensors and biocatalysts and methods of use” (priority 2017, dated 2023).

The subject of one data set is ccMA. Kind of data set: Intracellular ccMA sensing with CatM sensor in strain CJ184, flow cytometry. Type of data set: cell-based, P. putida. The source says: FIG. 14A represents the Acinetobacter baylyi CatM promoter region used for selection of ccMA sensing in P. putida KT2440. The regions that were partially diversified or completely randomized are marked ‘red’ and the mutations pursued are labeled. For example −10 and −35 sites were partially randomized for saturation, the ribosome binding site (RBS) was made compatible to the consensus sequence AAGGAG followed by eight bases to the start codon “ATG” of the reporter. Overall the library diversity was expected to be well above 60,000. Using a method similar to what has been described in Example 1-3, catM gene, diversified regulatory region, and sfgfp were inserted into the pBTL2 backbone. The completed circular plasmids, carrying Kanamycin resistance marker, were then transformed into electrocompetent cells of P. putida strain CJ184. The transformation gave well above 60,000 colonies to cover the library adequately. […] Post 16 h of growth at 30° C., the samples were analyzed on a flow cytometer (BD FACSAria III). […] Post third round of sorted population, a fraction was plated on LB agar+Kan50 plates and a few colonies evaluated for PCA, Benzoate and Catechol response, considering CJ184 strain is capable of converting them all to final product ccMA. […]

For data set [1] the following is noted: individual mutations, hydrolysis of OPs; cited from earlier work.
A short description of data set [2]: PON1 expression and solubility from fluorescence of the cell lysate. Conditions: based on the fluorescence of the cell lysate. More on the design: species or system E. coli. As for the experimental part:
The clones were further confirmed for improved activity by using clear cell lysates that were normalized for sfGFP fluorescence (the enzyme variants expressed as sfGFP-PON1 fusion by inducing the same clones with 200 μM pNP) and assayed for activity at different concentrations of PXN. […] The most notable aspect of comparison between the in vivo activity measurements (FIG. 17D) and the in vitro measurements (FIG. 17E) is the relative ranking of the different PON1 variants. While Lib1-C3.3 did show highest Vmax in both formats of experiment, the Lib2-D12 was the lowest in both cases. […] The solubility of other PON1 variants ranged between these two extreme values.

In a further data set the test system is PXN. Kind of data set: Whole cell catalysis and sensing of PON1 clones at varying PXN (contrast ratio). The format is cell-based, E. coli. Conditions: scaffold PON1-H115W. As for the experimental part:
(§1) FIGS. 17A-17G show evolution of PON1. […] Residue positions varied in library construction are indicated. […] The circled region is magnified (inset) for easy visualization of the bright colony. […] The contrast ratio is defined as total fluorescence of the cells in the presence of PXN over the background fluorescence of the cells in the absence of PXN. […] The product, pNP, is measured by absorbance (410 nm). Error bars are standard deviation from two independent assays with different fractions from size exclusion chromatography. […] Error bars are the standard deviation of two independent assays using elution fractions from first half and second half of the chromatogram peak from size exclusion chromatography.
In order to efficiently screen the library, the biosensor/biocatalyst plasmid consisting of variants of PON1 was directly transferred to high transformation efficiency DH5α cells. […] The colony picking can further be made more stringent by using lower PXN (for example 100 μM) in the growth media and colonies selected based on the fluorescence intensity under an illuminator.
The clones were further confirmed for improved activity by using clear cell lysates that were normalized for sfGFP fluorescence (the enzyme variants expressed as sfGFP-PON1 fusion by inducing the same clones with 200 μM pNP) and assayed for activity at different concentrations of PXN. […]

The test system of a further data set is pNP sensor. As to the kind of experiment: Raw whole cell fluorescence with pNP sensor and sfGFP-PON1 under positive feedback regulation, flow cytometer. The format is cell-based, E. coli. To be noted: mean of duplicate cultures ± SD. From the text: FIGS. 16A-16D show ‘Catalyze’ and ‘sense’ system for hydrolysis reactions. […] UI: background fluorescence from cells without any pNP source to induce the TF; […]; pNP: TF induced by exogenously supplied pNP as a control/reference. […] Relative activity levels are distinguishable by eye.
The technique described here (referred to in this example as “smart microbial cells” or SMC; e.g., FIGS. 1A and 1B) allows for catalysis and sensing in the same microbial cell. For a practical library application, we simplified and improved the signal to noise ratio of the biosensor. This was achieved by gene fusing the PON1 to the GFP so that the TF is also regulating the catalytic enzyme expression as well (scheme shown in FIG. 1B). This fusion is expected to have three distinct effects. First, it provides positive feedback, such that more the activity, the more PON1 is expressed, and in turn further ‘feeds’ the activity. […] Second, feedback will amplify the already present correlation between activity and GFP expression. Third, for suitably chosen GFP, the fluorescence signal conveniently reports the amount of fused PON1 present, allowing normalization for specific activity.
. Based on the catalytic efficiency and the cytoplasmic concentration of the hydrolase, PXN hydrolysis results in a correlated pNP production inside the microbial cell that ultimately determines activation of the pNP sensor and accumulation of sfGFP in the cells. […] When pNP was used as an inducer, such that the expression of sfGFP-PON1 expression is independent of the catalytic efficiency of PON1, modest differences in cell fluorescence were still captured across the PON1 variants indicating V346A mutation could be detrimental to PON1 expression and stability (FIG. 16C, Table 6).
Background: In flow cytometry, cells or beads pass a laser one at a time.

Data set [3] can be described thus: Paraoxonase activity of purified PON1 variants (pNP absorbance 410 nm). The format is biochemical. To be noted: 400 μM PXN. As for the experimental part: as §1
Finally, the gene for top PON1 variant Lib1-C3.3 (H115W, L69V, K70Q, Y71L, G73A) and the scaffold (H115W) were transferred to a pRSF-1b vector (Novagen) and expressed as a C-terminal 6×His-tagged protein. Post two-step purification using affinity column and a size exclusion chromatography, pure fractions were combined and tested for activity at varying concentrations of PXN. […]

B1: CatM_C2.9: CatM variant V97I, G127A, T128A, L147V with weaker ccMA sensitivity, SEQ ID NO: 25 (protein)
chain: MELRHLRYFVTVVEEQSISKAAEKLCIAQPPLSRQIQKLEEELGIQLFERGFRPAKVTEAGMFFYQHAVQILTHTAQASSMAKRIATVSQTLRIGYISSLLYGLLPEIIYLFRQQNPEIHIELIECAAKDQINALKQGKIDLGFGRVKITDPAIRRIVLHKEQLKLAIHKHHHLNQFAATGVHLSQIIDEPMLLYPVSQKPNFATFIQSLFTELGLVPSKLTEIREIQLALGLVAAGEGVCIVPASAMDIGVKNLLYIPILDDDAYSPISLAVRNMDHSNYIPKILACVQEVFATHHIRPLIE
modifications: CatM_C2.9
For the molecule B1, the “ccMA titer for dose-response (low sensitivity)” value with ccMA (CJ184) is more than 10 mM.

B2: L69V: PON1 individual point mutation L69V from the literature (protein, UniProt P27169 2-355, looked up, variant L69V)
Serum …: AKLIALTLLGMGLALFRNHQSSYQTRLNALREVQPVELPNCNLVKGIETGSEDLEILPNGLAFISSGVKYPGIKSFNPNSPGKILLMDLNEEDPTVLELGITGSKFDVSSFNPHGISTFTDEDNAMYLLVVNHPDAKSTVELFKFQEEEKSLLHLKTIRHKLLPNLNDIVAVGPEHFYGTNDHYFLDPYLQSWEMYLGLAWSYVVYYSPSEVRVVAEGFDFANGINISPDGKYVYIAELLAHKIHVYEKHANWTLTPLKSLDFNTLVDNISVDPETGDLWVGCHPNGMKIFFYDSENPPASEVLRIQNILTEEPKVTQVYAENGTVLQGSTVASVYKGKLLIGTVFHKALYCEL
Take B2: in data set [1], the “higher catalytic efficiency over the wild-type” value was “four- to sixteen and four”.

B3: Lib2-D12: PON1 clone from Lib2, H115W scaffold with F222I, F292I (protein, UniProt P27169 2-355, looked up, variant H115W F222I F292I)
Serum …: B2 Serum … with V68L, H114W, F221I, F291I
As for B3, in data set [2], the “protein yield compared to the scaffold” value amounted to 50%. For the same molecule, in the data set on PXN, the “contrast ratio higher than the scaffold” value is given as 2 fold.

B4: V346A: published PON1 variant with mutation V346A (protein, UniProt P27169 2-355, looked up, variant V346A)
Serum …: B2 Serum … with V68L, V345A
For the molecule B4, the “higher catalytic efficiency over the wild-type” value in data set [1] is given as “four- to sixteen”. The “Raw whole cell fluorescence intensity, PXN (1.6 mM)” value in the data set with pNP sensor (exogenous paraoxon 1.6 mM) stood at 895 ± 39. In the data set with pNP sensor (induced with exogenous pNP 200 μM), the “Raw whole cell fluorescence intensity, pNP (200 μM)” value is recorded as 6263 ± 57. Further, the “Raw whole cell fluorescence intensity, UI” value with pNP sensor (uninduced, no pNP source) came out at 174 ± 29.

B5: Lib1-C3.3: top PON1 variant (H115W, L69V, K70Q, Y71L, G73A) (protein, UniProt P27169 2-355, looked up, variant H115W L69V K70Q Y71L G73A)
Serum …: B2 Serum … with K69Q, Y70L, G72A, H114W
Turning to B5, the “turnover number higher than the starting sequence” value in data set [3] is “approximately thirty”. The “linear rate exceeding that of PON1-H115W” value in data set [3] (at ten-fold lower protein concentration) is “three”. The “protein yield compared to the scaffold” value in data set [2] was 95%.

B6: CatM_A9: CatM regulated promoter variant for reduced signal output, SEQ ID NO: 23 (nucleic acid)
DNA: TTATACGCCCTAATTGGTTTTATATACCTTTTTAGTATGCAAAAATACCAAATTGGTGTGGATTTTTATTATTACATTAATTTACAGTATGTAAATAGTATTTATTGAAAAGAAGATGGACCG
modifications: listed as DNA, chemistry not fully specified
For B6, in the data set on ccMA (compared with CatM_C2), the fluorescence and dose-response entry was “weaker fluorescence but very similar dose-response as the CatM_C2”.
